Results as given in patent US20240294593A1 (Genentech, published 2024).

T1: cynomolgus PD-1-His (cynomolgus monkey)
T1 chain: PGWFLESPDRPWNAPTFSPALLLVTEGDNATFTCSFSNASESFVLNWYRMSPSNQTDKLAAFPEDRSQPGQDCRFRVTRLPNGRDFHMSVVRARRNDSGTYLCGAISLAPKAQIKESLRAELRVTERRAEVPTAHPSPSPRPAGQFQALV

B1: H1.223_L1.1 (XENP32839) (antibody, human IgG1, kappa, V domains shown)
VH: EVQLVESGGGLVQPGGSLRLSCAASGFTFSSFGMHWVRQAPGKGLEWVSYISSGSSIIYYADSVKGRFTISRDNAKNSLYLQMNSLRAEDTAVYYCARGGHQVFSPDYWGQGTLVTVSS
VL: DIVMTQSPDSLAVSLGERATINCKSSQSLLHSGNQKNYLTWYQQKPGQPPKLLIYWASTRESGVPDRFTGSGSGTDFTLTISSLQAEDVAVYYCQNDYSYPFTFGSGTKLEIKR
notes: VH substitution R109H/L110Q/W112F (Xencor #); R97H/L98Q/W100F (Kabat); also called mAb C[PD1]_H1.223_L1.1_IgG1_PVA_/S267K
B2: H1.215_L1.1 (XENP32831) (antibody, human IgG1, kappa, V domains shown)
VH: EVQLVESGGGLVQPGGSLRLSCAASGFTFSSFGMHWVRQAPGKGLEWVSYISSGSSIIYYADSVKGRFTISRDNAKNSLYLQMNSLRAEDTAVYYCARGARLVFSPDYWGQGTLVTVSS
VL: DIVMTQSPDSLAVSLGERATINCKSSQSLLHSGNQKNYLTWYQQKPGQPPKLLIYWASTRESGVPDRFTGSGSGTDFTLTISSLQAEDVAVYYCQNDYSYPFTFGSGTKLEIKR
notes: VH substitution G108A/W112F (Xencor #); G96A/W100F (Kabat); also called mAb C[PD1]_H1.215_L1.1_IgG1_PVA_/S267K
B3: H1.224_L1.1 (XENP32840) (antibody, human IgG1, kappa, V domains shown)
VH: EVQLVESGGGLVQPGGSLRLSCAASGFTFSSFGMHWVRQAPGKGLEWVSYISSGSSIIYYADSVKGRFTISRDNAKNSLYLQMNSLRAEDTAVYYCARGGRRLFSPDYWGQGTLVTVSS
VL: DIVMTQSPDSLAVSLGERATINCKSSQSLLHSGNQKNYLTWYQQKPGQPPKLLIYWASTRESGVPDRFTGSGSGTDFTLTISSLQAEDVAVYYCQNDYSYPFTFGSGTKLEIKR
notes: VH substitution L110R/V111L/W112F (Xencor #); L98R/V99L/W100F (Kabat); also called mAb C[PD1]_H1.224_L1.1_IgG1_PVA_/S267K
B4: XENP28536 (mAb C[PD-1]_H1L1, bivalent human IgG1) (antibody, V domains shown)
VH: EVQLVESGGGLVQPGGSLRLSCAASGFTFSSFGMHWVRQAPGKGLEWVSYISSGSSIIYYADSVKGRFTISRDNAKNSLYLQMNSLRAEDTAVYYCARGGRLVWSPDYWGQGTLVTVSS
VL: DIVMTQSPDSLAVSLGERATINCKSSQSLLNSGNQKNYLTWYQQKPGQPPKLLIYWASTRESGVPDRFTGSGSGTDFTLTISSLQAEDVAVYYCQNDYSYPFTFGSGTKLEIK
notes: Bivalent human IgG1 with E233P/L234V/L235A/G236del/S267K
B5: H1.220_L1.1 (XENP32836) (antibody, human IgG1, kappa, V domains shown)
VH: EVQLVESGGGLVQPGGSLRLSCAASGFTFSSFGMHWVRQAPGKGLEWVSYISSGSSIIYYADSVKGRFTISRDNAKNSLYLQMNSLRAEDTAVYYCARGGRLYFSPDYWGQGTLVTVSS
VL: DIVMTQSPDSLAVSLGERATINCKSSQSLLHSGNQKNYLTWYQQKPGQPPKLLIYWASTRESGVPDRFTGSGSGTDFTLTISSLQAEDVAVYYCQNDYSYPFTFGSGTKLEIKR
notes: VH substitution V111Y/W112F (Xencor #); V99Y/W100F (Kabat); also called mAb C[PD1]_H1.220_L1.1_IgG1_PVA_/S267K
B6: H1.217_L1.1 (XENP32833) (antibody, human IgG1, kappa, V domains shown)
VH: EVQLVESGGGLVQPGGSLRLSCAASGFTFSSFGMHWVRQAPGKGLEWVSYISSGSSIIYYADSVKGRFTISRDNAKNSLYLQMNSLRAEDTAVYYCARGGRLSFSPDYWGQGTLVTVSS
VL: DIVMTQSPDSLAVSLGERATINCKSSQSLLHSGNQKNYLTWYQQKPGQPPKLLIYWASTRESGVPDRFTGSGSGTDFTLTISSLQAEDVAVYYCQNDYSYPFTFGSGTKLEIKR
notes: VH substitution V111S/W112F (Xencor #); V99S/W100F (Kabat); also called mAb C[PD1]_H1.217_L1.1_IgG1_PVA_/S267K
B7: H1.216_L1.1 (XENP32832) (antibody, human IgG1, kappa, V domains shown)
VH: EVQLVESGGGLVQPGGSLRLSCAASGFTFSSFGMHWVRQAPGKGLEWVSYISSGSSIIYYADSVKGRFTISRDNAKNSLYLQMNSLRAEDTAVYYCARGGSVLFSPDYWGQGTLVTVSS
VL: DIVMTQSPDSLAVSLGERATINCKSSQSLLHSGNQKNYLTWYQQKPGQPPKLLIYWASTRESGVPDRFTGSGSGTDFTLTISSLQAEDVAVYYCQNDYSYPFTFGSGTKLEIKR
notes: VH substitution R109S/L110V/V111L/W112F (Xencor #); R97S/L98V/V99L/W100F (Kabat); also called mAb C[PD1]_H1.216_L1.1_IgG1_PVA_/S267K
B8: H1.219_L1.1 (XENP32835) (antibody, human IgG1, kappa, V domains shown)
VH: EVQLVESGGGLVQPGGSLRLSCAASGFTFSSFGMHWVRQAPGKGLEWVSYISSGSSIIYYADSVKGRFTISRDNAKNSLYLQMNSLRAEDTAVYYCARGGSLYLSPDYWGQGTLVTVSS
VL: DIVMTQSPDSLAVSLGERATINCKSSQSLLHSGNQKNYLTWYQQKPGQPPKLLIYWASTRESGVPDRFTGSGSGTDFTLTISSLQAEDVAVYYCQNDYSYPFTFGSGTKLEIKR
notes: VH substitution R109S/V111Y/W112L (Xencor #) but R97S/V99Y/W100F in the Kabat column: the two columns disagree; also called mAb C[PD1]_H1.219_L1.1_IgG1_PVA_/S267K
B9: H1.221_L1.1 (XENP32837) (antibody, human IgG1, kappa, V domains shown)
VH: EVQLVESGGGLVQPGGSLRLSCAASGFTFSSFGMHWVRQAPGKGLEWVSYISSGSSIIYYADSVKGRFTISRDNAKNSLYLQMNSLRAEDTAVYYCARGGRRVFSPDYWGQGTLVTVSS
VL: DIVMTQSPDSLAVSLGERATINCKSSQSLLHSGNQKNYLTWYQQKPGQPPKLLIYWASTRESGVPDRFTGSGSGTDFTLTISSLQAEDVAVYYCQNDYSYPFTFGSGTKLEIKR
notes: VH substitution L110R/W112F (Xencor #); L98R/W100F (Kabat); also called mAb C[PD1]_H1.221_L1.1_IgG1_PVA_/S267K

How the values were obtained:
human PD-1-His [1] = biological target: T2, human PD-1-His (human, UniProt Q15116 25-167, limits assumed); experiment: Octet (BLI), AHC capture of the bivalent mAb, PD-1 in solution
T2 construct: Antigen of the Octet assays; not shown: His tag
T2 sequence (Q15116 25-167 limits assumed): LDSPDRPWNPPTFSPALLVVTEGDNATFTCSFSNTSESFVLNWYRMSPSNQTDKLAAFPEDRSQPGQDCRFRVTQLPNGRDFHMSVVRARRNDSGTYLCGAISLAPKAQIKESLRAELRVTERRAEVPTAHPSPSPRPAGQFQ
Source text: (§1) In particular, anti-human IgG-Fc (AHC) biosensors were used to capture the test articles and dipped into multiple concentrations of PD-1.

human PD-1-His [2] = biological target: T2, human PD-1-His; experiment: Octet (BLI), AHC biosensors capture the bivalent mAb, dipped into multiple concentrations of PD-1; KDapp per legend
Source text: as §1

cynomolgus PD-1-His = biological target: T1, cynomolgus PD-1-His; experiment: Octet (BLI); antibody captured on anti-human Fc (AHC) biosensors and dipped into multiple concentrations of cynomolgus PD-1-His

Row | Binder | koff (human PD-1-His [1]) [s⁻¹] | kon (human PD-1-His [1]) [M⁻¹ s⁻¹] | Kd (human PD-1-His [2]) [nM] | Kd (cynomolgus PD-1-His) [nM]
1 | B1 | 0.00436 | 123000 | 35.4 | –
2 | B2 | 0.00482 | 107000 | 44.9 | –
3 | B3 | 0.00416 | 59400 | 70 | –
4 | B4 | – | – | – | 35.8
5 | B5 | 0.00557 | 140000 | 39.9 | –
6 | B6 | 0.023 | 143000 | 161 | –
7 | B7 | 0.00218 | 193000 | 11.4 | –
8 | B8 | 0.00489 | 197000 | 24.8 | –
9 | B9 | 0.00477 | 136000 | 35.1 | –
